The record followed here is US20040265965A1 (ELAN PHARMACEUTICALS, published 2004).

Test [1] addresses T1, Δ2,3-452H,NINL soluble BACE (S174I, N223A, R42L43P44R45 changed to NINL, histidine tag), baculovirus/Sf9 (human, UniProt P56817 46-452).
T1 construct: not shown: histidine tag
Nature of the test: affinity chromatography on the immobilised inhibitor peptide.

The target in test [2] is T2, Δ2,3-452H soluble BACE (S174I, N223A, histidine tag), baculovirus/Sf9 (human, UniProt P56817 22-452).
T2 construct: not shown: histidine tag
T2 sequence (P56817 22-452 S174I/N223A): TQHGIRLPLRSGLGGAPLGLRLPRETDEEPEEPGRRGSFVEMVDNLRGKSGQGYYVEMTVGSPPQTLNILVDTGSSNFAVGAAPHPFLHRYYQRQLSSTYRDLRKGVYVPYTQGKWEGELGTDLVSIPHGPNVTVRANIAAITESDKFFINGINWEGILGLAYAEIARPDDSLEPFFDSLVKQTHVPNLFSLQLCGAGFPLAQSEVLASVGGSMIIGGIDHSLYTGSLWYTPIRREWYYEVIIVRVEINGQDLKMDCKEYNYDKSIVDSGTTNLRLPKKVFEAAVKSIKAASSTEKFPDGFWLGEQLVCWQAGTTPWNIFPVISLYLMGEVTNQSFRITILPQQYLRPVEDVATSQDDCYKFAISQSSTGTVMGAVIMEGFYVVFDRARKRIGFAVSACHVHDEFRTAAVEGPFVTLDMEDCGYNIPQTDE
The description is as above.

Non-standard residues stand in square brackets, D forms with d. No end group written: not given here. Sta = CC(C)C[C@H](N)[C@@H](O)CC(=O)O

T1 sequence (P56817 other isoform, or with tags, fused parts or gaps S174I N223A S174I N223A): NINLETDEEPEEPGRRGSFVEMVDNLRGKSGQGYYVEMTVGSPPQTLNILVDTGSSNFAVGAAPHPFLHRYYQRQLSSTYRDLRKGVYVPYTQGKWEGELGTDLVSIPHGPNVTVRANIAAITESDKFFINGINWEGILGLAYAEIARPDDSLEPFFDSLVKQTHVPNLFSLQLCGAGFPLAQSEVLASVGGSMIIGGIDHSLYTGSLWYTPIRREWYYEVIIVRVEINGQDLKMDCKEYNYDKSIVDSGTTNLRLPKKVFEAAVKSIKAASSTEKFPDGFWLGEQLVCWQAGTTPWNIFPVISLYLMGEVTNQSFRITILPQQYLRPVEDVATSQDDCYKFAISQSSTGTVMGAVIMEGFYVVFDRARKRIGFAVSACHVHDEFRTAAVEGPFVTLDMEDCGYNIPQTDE

Turning to KTEEISEVN[Sta]VAEF (also called P10-P4′staV; P10-4′staD→V) [P10-P4′staD→V inhibitor peptide, KTEEISEVN[sta]VAEF], the binding result in test [1] and in test [2] was “binds” each time.
